Results published in the supplement of paper PMC7877785.
± gives the uncertainty stated by the source.

Test: self-splicing fitness, log relative to wild type (ln ratio); higher = more splicing; Tetrahymena group I intron in knt gene, E. coli kanamycin selection, DiMSum; sequences stand for … in CUCUCU…GGAGGGAAAAGUUAUCAGGCAUGCACCUGGUAGCUAGUCUUUAAACCAAUAGAUUGCAUCGGUUUAAAAGGCAAGACCGUCAAAUUGCGGGAAAGGGGUCAACAGCCGUUCAGUACCAAGUCUCAGGGGAAACUUUGAGAUGGCCUUGCAAAGGGUAUGGUAAUAAGCUGACGGACAUGGUCCUAACCACGCAGCCAAGUCCUAAGUCAACAGAUCUUCUGUUGAUAUGGAUGCAGUUCACAGACUAAAUGUCGGUCGGGGAAGAUGUAUUCUUCUCAUAAGAUAUAGUCGGACCUCUCCUUAAUGGGAGCUAGCGGAUGAAGUGAUGCAACACUGGAGCCGCUGGGAACUAAUUUGUAUGCGAAAGUAUAUUGAUUAGUUUUGGAGUACUCGUGGUCG
Procedure, shortened: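 A randomised library covering all eight P1ex-region intron nucleotides was built with the intron in the knt kanamycin-resistance gene on pET-22b(+) and held in E. coli BL21(DE3). Cells were grown overnight at 37°C or 30°C on LB agar, with or without 25 μg/mL kanamycin, plus 100 μg/mL carbenicillin, 50 μM IPTG and 0.2% rhamnose, and pooled colonies were amplicon-sequenced on an Illumina HiSeq 2500. DiMSum fitness is the error-weighted combination of wild-type-normalised replicate fold changes, kanamycin versus none.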

Row | Sequence | self-splicing fitness (ln) (30 °C) | self-splicing fitness (ln) (37 °C)
1 | GGCGAGCAAUAUUACGUUAC | -3.24 ± 0.33 | -2.03 ± 0.32
2 | AGUAAGCAAUAUUACGCGCA | -1.02 ± 0.16 | 0.0785 ± 0.16
3 | UCCAAGCAAUAUUACGGCAU | -3.77 ± 0.21 | -1.48 ± 0.12
4 | CAAGAGCAAUAUUACGCACA | -2.72 ± 0.36 | -1.53 ± 0.43
5 | UCCGAGCAAUAUUACGAAAU | -4.17 ± 0.34 | –
6 | UGAUAGCAAUAUUACGCGAA | -2.64 ± 0.44 | -1.49 ± 0.26
7 | AUCGAGCAAUAUUACGGGAG | -3.52 ± 0.25 | -2.5 ± 0.29
8 | GCUCAGCAAUAUUACGGGCU | -4.72 ± 0.38 | -2.63 ± 0.21
9 | AUGAAGCAAUAUUACGGCUG | 0.352 ± 0.066 | 0.0954 ± 0.087
10 | CCUGAGCAAUAUUACGUACU | -2.04 ± 0.21 | -2.3 ± 0.3
11 | UUCAAGCAAUAUUACGGAUC | -1.5 ± 0.25 | -2.84 ± 0.21
12 | ACUCAGCAAUAUUACGGUUA | -0.995 ± 0.08 | -0.513 ± 0.076
13 | UCCAAGCAAUAUUACGUUAU | -2.78 ± 0.18 | -3.5 ± 0.37
14 | UCUAAGCAAUAUUACGAUGG | -0.0699 ± 0.087 | 0.158 ± 0.11
15 | UGCAAGCAAUAUUACGCGUC | -1.63 ± 0.18 | -2.93 ± 0.26
16 | UGAAAGCAAUAUUACGCACA | -0.903 ± 0.15 | 0.683 ± 0.15
17 | UUGAAGCAAUAUUACGUUUC | -3.35 ± 0.2 | -3.3 ± 0.32
18 | AUUUAGCAAUAUUACGGUCU | -0.911 ± 0.1 | -0.391 ± 0.15
19 | GCACAGCAAUAUUACGUUGC | -3.95 ± 0.17 | -2.57 ± 0.17
20 | AAAGAGCAAUAUUACGAGCG | -2.08 ± 0.21 | -2.17 ± 0.24
21 | CAUAAGCAAUAUUACGGUGC | -3.51 ± 0.18 | -3.18 ± 0.24
22 | UCUUAGCAAUAUUACGCGCA | -0.966 ± 0.29 | -1.53 ± 0.23
23 | UUCGAGCAAUAUUACGCCUA | -1.67 ± 0.11 | -1.39 ± 0.097
24 | GGCGAGCAAUAUUACGCUUU | -2.76 ± 0.23 | -1.22 ± 0.19
25 | AAUCAGCAAUAUUACGUUGA | -0.828 ± 0.086 | -0.22 ± 0.1
26 | GGGGAGCAAUAUUACGACUC | -0.891 ± 0.25 | -0.405 ± 0.5

Row | Sequence | self-splicing fitness (ln) (30 °C) | self-splicing fitness (ln) (37 °C)
27 | UGAGAGCAAUAUUACGGGGU | – | -2.4 ± 0.48
28 | GUCUAGCAAUAUUACGUCAA | -1.4 ± 0.067 | -0.997 ± 0.085
29 | UUUGAGCAAUAUUACGGGCU | -2.89 ± 0.34 | -2.86 ± 0.41
30 | UGUUAGCAAUAUUACGCGUG | -0.492 ± 0.11 | -0.61 ± 0.099
31 | GCCAAGCAAUAUUACGCGGA | -1.1 ± 0.099 | -0.277 ± 0.11
32 | AGACAGCAAUAUUACGAGAC | – | -1.59 ± 0.37
33 | UGCGAGCAAUAUUACGCGCU | -3.43 ± 0.36 | –
34 | CCCCAGCAAUAUUACGUGAA | -4.42 ± 0.13 | -2.44 ± 0.099
35 | UAUUAGCAAUAUUACGUAUA | -1.6 ± 0.18 | -2.03 ± 0.21
36 | UGGAAGCAAUAUUACGAGAU | -3.92 ± 0.26 | -2.47 ± 0.21
37 | UUAGAGCAAUAUUACGAAGG | -1.72 ± 0.14 | -1.9 ± 0.23
38 | GGACAGCAAUAUUACGACAA | -1.7 ± 0.21 | -0.0889 ± 0.12
39 | GCCGAGCAAUAUUACGCCGG | -3.21 ± 0.3 | -2.08 ± 0.38
40 | CGUUAGCAAUAUUACGGACA | -0.317 ± 0.08 | 0.172 ± 0.1
41 | CUUGAGCAAUAUUACGCUGC | -2.39 ± 0.49 | –
42 | GCGAAGCAAUAUUACGUGAG | -1.89 ± 0.091 | -2.01 ± 0.1
43 | CCUAAGCAAUAUUACGGCGG | -3.12 ± 0.17 | -2.79 ± 0.2
44 | GCUCAGCAAUAUUACGGGUA | -0.401 ± 0.077 | -0.454 ± 0.078
45 | CGGAAGCAAUAUUACGUGCA | -3.23 ± 0.23 | -0.628 ± 0.13
46 | GGAAAGCAAUAUUACGAAGG | -3.22 ± 0.23 | -2.5 ± 0.38
47 | AUUAAGCAAUAUUACGAUCU | 0.226 ± 0.12 | -0.0178 ± 0.16
48 | CUCCAGCAAUAUUACGUGCC | -3.68 ± 0.33 | -0.249 ± 0.27
49 | UCUAAGCAAUAUUACGACGA | -0.414 ± 0.2 | 0.116 ± 0.17
50 | AUGAAGCAAUAUUACGAUCG | 0.0492 ± 0.071 | 0.821 ± 0.11
51 | AGUCAGCAAUAUUACGUGUA | -3.11 ± 0.14 | -0.76 ± 0.086
52 | GUAUAGCAAUAUUACGUAAG | -1.48 ± 0.13 | -0.567 ± 0.14

Row | Sequence | self-splicing fitness (ln) (30 °C) | self-splicing fitness (ln) (37 °C)
53 | UACCAGCAAUAUUACGAGGG | -3.38 ± 0.2 | -1.3 ± 0.12
54 | AAUUAGCAAUAUUACGAGAA | -2.65 ± 0.48 | -1.05 ± 0.28
55 | AGACAGCAAUAUUACGUCGU | -2.21 ± 0.091 | -1.85 ± 0.12
56 | UGUUAGCAAUAUUACGCUUG | -2.03 ± 0.14 | -0.556 ± 0.12
57 | ACGCAGCAAUAUUACGAUCG | -0.15 ± 0.049 | 0.252 ± 0.071
58 | UAAGAGCAAUAUUACGCGAG | -3.96 ± 0.21 | -1.85 ± 0.17
59 | CCCUAGCAAUAUUACGGAAG | -4.09 ± 0.22 | -2.02 ± 0.19
60 | GAUAAGCAAUAUUACGUUCC | -3.71 ± 0.28 | -2.94 ± 0.24
61 | CAUCAGCAAUAUUACGUCGG | -0.265 ± 0.055 | -0.317 ± 0.076
62 | AAUGAGCAAUAUUACGCAAG | -3.81 ± 0.27 | -2.45 ± 0.38
63 | CUGAAGCAAUAUUACGAAAU | -3.78 ± 0.27 | -2.38 ± 0.25
64 | CAAUAGCAAUAUUACGGUUA | -1.4 ± 0.12 | -1.24 ± 0.1
65 | CACAAGCAAUAUUACGCUCC | -1.93 ± 0.16 | -1.66 ± 0.22
66 | GACGAGCAAUAUUACGCGAC | -2.09 ± 0.26 | -1.04 ± 0.27
67 | CGUUAGCAAUAUUACGUGGA | -2.98 ± 0.18 | -1.68 ± 0.13
68 | CCCCAGCAAUAUUACGCGCG | -2.69 ± 0.14 | -2.97 ± 0.22
69 | GAACAGCAAUAUUACGCCAG | -3.71 ± 0.15 | -3.05 ± 0.27
70 | ACCUAGCAAUAUUACGGCAG | -3.99 ± 0.19 | -1.16 ± 0.14
71 | AGCCAGCAAUAUUACGCCAA | -3.36 ± 0.19 | -1.75 ± 0.17
72 | GGAGAGCAAUAUUACGAGCC | -2.64 ± 0.49 | –
73 | AUCUAGCAAUAUUACGCUUA | -1.44 ± 0.1 | -0.971 ± 0.096
74 | UGUGAGCAAUAUUACGACGA | -0.898 ± 0.14 | 0.278 ± 0.14
75 | GGUAAGCAAUAUUACGCCAU | -2.39 ± 0.36 | -1.86 ± 0.29
76 | CCCUAGCAAUAUUACGGAUA | – | -2.73 ± 0.26
77 | AGGAAGCAAUAUUACGAUGA | -0.649 ± 0.13 | -0.773 ± 0.17
78 | GGUGAGCAAUAUUACGUUGA | -2.7 ± 0.43 | -1.05 ± 0.18
